Target: c-MET on the surface of HT29 and HCT-116 human colon cancer cells (human, UniProt P08581 25-1390)
Test: cell-based or functional assay

Sequence of c-MET on the surface of HT29 and HCT-116 human colon cancer cells (P08581 25-1390 limits assumed): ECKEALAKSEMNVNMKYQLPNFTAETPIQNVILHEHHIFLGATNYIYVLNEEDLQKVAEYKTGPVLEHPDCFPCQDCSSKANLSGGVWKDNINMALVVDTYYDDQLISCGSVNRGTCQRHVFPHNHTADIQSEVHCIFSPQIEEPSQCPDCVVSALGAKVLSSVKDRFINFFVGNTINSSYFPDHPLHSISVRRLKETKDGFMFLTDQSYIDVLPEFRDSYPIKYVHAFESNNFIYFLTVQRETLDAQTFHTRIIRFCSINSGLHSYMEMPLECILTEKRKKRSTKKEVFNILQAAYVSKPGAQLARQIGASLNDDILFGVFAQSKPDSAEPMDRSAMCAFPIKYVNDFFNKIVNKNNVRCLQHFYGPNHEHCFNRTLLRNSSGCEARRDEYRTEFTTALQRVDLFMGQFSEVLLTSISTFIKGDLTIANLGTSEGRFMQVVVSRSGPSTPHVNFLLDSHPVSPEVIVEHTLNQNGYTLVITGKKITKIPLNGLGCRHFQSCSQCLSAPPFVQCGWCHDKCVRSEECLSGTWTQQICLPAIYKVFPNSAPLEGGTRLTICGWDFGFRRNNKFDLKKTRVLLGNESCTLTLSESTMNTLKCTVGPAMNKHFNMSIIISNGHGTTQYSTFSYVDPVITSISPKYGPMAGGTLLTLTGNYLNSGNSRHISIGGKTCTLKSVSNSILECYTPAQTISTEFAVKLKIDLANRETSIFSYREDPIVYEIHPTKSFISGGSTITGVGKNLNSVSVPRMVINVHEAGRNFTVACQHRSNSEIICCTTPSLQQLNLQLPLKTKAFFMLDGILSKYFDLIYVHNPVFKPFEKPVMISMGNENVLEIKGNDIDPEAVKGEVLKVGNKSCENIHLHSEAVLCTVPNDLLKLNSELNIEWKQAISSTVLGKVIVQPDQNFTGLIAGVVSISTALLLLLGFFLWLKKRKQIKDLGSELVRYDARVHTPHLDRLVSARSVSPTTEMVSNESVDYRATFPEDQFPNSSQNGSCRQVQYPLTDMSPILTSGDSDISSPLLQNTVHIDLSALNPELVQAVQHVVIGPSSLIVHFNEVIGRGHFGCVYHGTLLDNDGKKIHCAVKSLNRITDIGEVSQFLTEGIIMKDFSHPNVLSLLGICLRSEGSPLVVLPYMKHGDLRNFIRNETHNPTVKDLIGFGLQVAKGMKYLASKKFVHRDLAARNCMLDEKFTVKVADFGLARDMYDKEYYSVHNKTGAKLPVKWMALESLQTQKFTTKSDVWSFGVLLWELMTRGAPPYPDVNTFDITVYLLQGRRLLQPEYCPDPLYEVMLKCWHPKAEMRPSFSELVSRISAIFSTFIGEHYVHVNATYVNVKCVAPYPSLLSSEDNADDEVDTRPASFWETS

Binder | EC50 of human NK cell lysis of c-MET positive target cells (DELFIA cytotoxicity assay) [nM]
A49MI-Duobody-TriNKET-Onartuzumab (bispecific antibody, human IgG1, kappa) heavy 1: not shown light 1: DIQMTQSPSSLSASVGDRVTITCKSSQSLLYTSSQKNYLAWYQQKPGKAPKLLIYWASTRESGVPSRFSGSGSGTDFTLTISSLQPEDFATYYCQQYYAYPWTFGQGTKVEIKRTVAAPSVFIFPPSDEQLKSGTASVVCLLNNFYPREAKVQWKVDNALQSGNSQESVTEQDSKDSTYSLSSTLTLSKADYEKHKVYACEVTHQGLSSPVTKSFNRGEC heavy 2: not shown light 2: DIQMTQSPSSVSASVGDRVTITCRASQGISSWLAWYQQKPGKAPKLLIYAASSLQSGVPSRFSGSGSGTDFTLTISSLQPEDFATYYCQQGVSFPRTFGGGTKVEIKRTVAAPSVFIFPPSDEQLKSGTASVVCLLNNFYPREAKVQWKVDNALQSGNSQESVTEQDSKDSTYSLSSTLTLSKADYEKHKVYACEVTHQGLSSPVTKSFNRGEC | < 1
A49MI-Duobody-TriNKET-Emibetuzumab (bispecific antibody, human IgG1, kappa) heavy 1: not shown light 1: DIQMTQSPSSLSASVGDRVTITCSVSSSVSSIYLHWYQQKPGKAPKLLIYSTSNLASGVPSRFSGSGSGTDFTLTISSLQPEDFATYYCQVYSGYPLTFGGGTKVEIKRTVAAPSVFIFPPSDEQLKSGTASVVCLLNNFYPREAKVQWKVDNALQSGNSQESVTEQDSKDSTYSLSSTLTLSKADYEKHKVYACEVTHQGLSSPVTKSFNRGEC heavy 2: not shown light 2: DIQMTQSPSSVSASVGDRVTITCRASQGISSWLAWYQQKPGKAPKLLIYAASSLQSGVPSRFSGSGSGTDFTLTISSLQPEDFATYYCQQGVSFPRTFGGGTKVEIKRTVAAPSVFIFPPSDEQLKSGTASVVCLLNNFYPREAKVQWKVDNALQSGNSQESVTEQDSKDSTYSLSSTLTLSKADYEKHKVYACEVTHQGLSSPVTKSFNRGEC | < 1
A49MI-Duobody-TriNKET-ABT-700 (bispecific antibody, human IgG1, kappa) heavy 1: not shown light 1: not shown heavy 2: not shown light 2: DIQMTQSPSSVSASVGDRVTITCRASQGISSWLAWYQQKPGKAPKLLIYAASSLQSGVPSRFSGSGSGTDFTLTISSLQPEDFATYYCQQGVSFPRTFGGGTKVEIKRTVAAPSVFIFPPSDEQLKSGTASVVCLLNNFYPREAKVQWKVDNALQSGNSQESVTEQDSKDSTYSLSSTLTLSKADYEKHKVYACEVTHQGLSSPVTKSFNRGEC | < 1

From US20220153848A1 (DRAGONFLY THERAPEUTICS, published 2022)
